In PMC11262690:

Target: Nematocida displodere mechanosensitive ion channel of small conductance 2, MscS2Δ2–29 (His14-SUMO tag cleaved) (Nematocida displodere)
Test: cryo-EM structure; single-particle, 0.33 mg/mL in DDM, 200 kV Glacios; consensus refinement without symmetry 8.3 Å, focused refinement of two channels 7.7 Å

Substance: Nematocida displodere mechanosensitive ion channel of small conductance 2, MscS2Δ2–29 (His14-SUMO tag cleaved) (domain or fragment)
- heptameric channels in the superstructure: 6
- stoichiometry N: 7
